Data set [1] concerns 90 bp oligos pre-coated with SSB. Briefly: Oligonucleotide annealing and quenching in vitro. It counts as biochemical. The following applies: two 90 bp oligos pre-coated with SSB. The source says: It was first whether two 90 bp oligos could anneal if they were pre-coated with SSB. SSBs was purified from E. coli (gram-negative), where most recombineering work has been performed, and L. lactis (gram-positive), a lactic acid bacterium phylogenetically distantly related to E. coli. […] It was next tested capacity of a phage RecT protein to overcome this SSB-mediated inhibition of annealing. Thus, Redβ, which is not broadly portable, but mediates efficient oligonucleotide annealing in E. coli, was purified. […] These preliminary results gave us an indication that while bacterial SSBs inhibit oligonucleotide annealing in vitro, RecTs overcome the inhibitory effect in an SSB-specific manner.
Fluorescent (tolC-r.null.mut-3′FAM) and quenching (tolC-f.null.mut-5′IBFQ) oligos were ordered from Integrated DNA Technologies. Unless otherwise indicated, 50 nM of each oligo was incubated in 25 mM TRIS-HCl pH 7.4 with 1.0 μM Ec_SSB or Ll_SSB at 30° C. for 30 minutes. 100 μl of each oligo mixture were then combined into a 96-well clear-bottom black assay plate (Costar), incubated a further 60 minutes at 30° C., and annealing was tracked on a Synergy H4 microplate reader (BioTek) with fluorescence excitation set to 495 nm and emission set to 520 nm. After 60 minutes, 20 μl of a solution with or without 25 μM Redβ and containing 100 mM MgCl2 was added to achieve a final reaction concentration of 2.5 μM Redβ and 10 mM MgCl2. The annealing was then tracked over 10 hours in a the Synergy H4 microplate reader with the setting indicated above.

The test system of data set [2] is Agrobacterium tumefaciens. Put plainly: SSAP candidate enrichment. Format: cell-based. As to the method:
(§1) The editing efficiency of SSAP candidates was also tested in Agrobacterium tumefaciens and in Staphylococcus aureus using the methods described above.

Another data set relates to Staphylococcus aureus. Briefly: SSAP candidate enrichment. It counts as cell-based. The procedure:
as §1

The test system of the next data set is E. coli. Briefly: Allelic recombination frequency, selective vs non-selective plates. It counts as cell-based, Escherichia coli. The following applies: RecT alone. As to the method: (§2) Four variants known to enable high genome editing efficiency were selected (Redβ and PapRecT in E. coli, LrpRecT in L. lactis, and MspRecT in M. smegmatis), and tested codon optimized versions of all four in both E. coli (gram-negative), and L. lactis (gram-positive). Genome editing efficiency was measured by introducing oligos encoding known antibiotic resistance mutations, and compared the antibiotic resistant cell counts to the total number of viable cells in the population (FIGS. 17E-17F). […] In L. lactis, LrpRecT was the only functional homolog, and improved oligo incorporation 7,700-fold, while the three other RecT variants were nearly non-functional, improving oligo incorporation less than 7-fold (FIG. 17H). No RecT protein functioned well both in E. coli and L. lactis.
A single colony of E. coli was grown overnight to saturation. In the morning 30 μL of dense culture was inoculated into 3 mL of fresh media and grown for 1 hour. To induce gene expression of the pARC8 vector for recombineering experiments, L-arabinose was added to a final concentration of 0.2% (w/v) and the cells were grown an additional hour. 1 mL of cells were pelleted at 4° C. by centrifugation at 12,000×g for 2.5 minutes and washed twice with 1 mL of ice-cold dH2O. Cells were resuspended in 50 μL ice-cold dH2O containing DNA and transferred to a pre-chilled 0.1 cm electroporation cuvette.
(§3) Electrocompetent cells were electroporated with 90-mer oligos at: 1 uM for E. coli, 50 μg for L. lactis, and 10 uM for C. crescentus. 70-mer oligos were used at 1 μg for M. smegmatis. All oligos were obtained from IDT and can be found under “Oligonucleotides for genome editing” in materials and methods. For dsDNA experiments L. lactis was electroporated with 1.5 μg purified linear dsDNA. Cells were electroporated using a Bio-Rad gene pulser set to 25 μF, 200 S2, and 1.8 kV for E. coli, 2.0 kV for L. lactis, and 1.5 kV for C. crescentus and to 1000Ω and 2.5 kV for M. smegmatis. Immediately after electroporation, cells were recovered in fresh media for 3 hours for E. coli, 1 hour for L. lactis, overnight for M. smegmatis and overnight for C. crescentus. L. lactis recovery media was supplemented with MgCl2 and CaCl2) at a concentration of 20 mM and 2 mM, respectively. E. coli recovery media was supplemented with carbenicillin. M. smegmatis recovery media was supplemented with hygromycin. C. crescentus recovery media was supplemented with 0.3% xylose and kanamycin. After recovery, the cells were serial diluted and plated on non-selective vs. selective agar plates to obtain approximately 50-500 CFU/plate. Colonies were counted using a custom script in Fiji, and allelic recombination frequency was calculated by dividing the number of colonies on selective plates, with the number of colonies on non-selective plates.

A further data set has as its system L. rhamnosus. It counts as cell-based. The procedure: Finally, the model for RecT was used to establish recombineering in L. rhamnosus, a well-studied probiotic used to treat a variety of illnesses including diarrhea and bacterial vaginosis. Although the L. rhamnosus SSB and L. lactis SSB only have 47% identity, they share identical SSB C-terminal tail 7 amino acids. It was determined whether LrpRecT (which functions in L. lactis) is portable to L. rhamnosus, while the other RecT proteins would not be functional.

The test system of a further data set is L. lactis. Put plainly: Allelic recombination frequency, selective vs non-selective plates. Format: cell-based, Lactococcus lactis. The following applies: RecT alone. As to the method: as §2
A single colony of L. lactis was grown overnight to saturation. 500 μL of dense culture was inoculated into 5 mL of fresh media, supplemented with 500 mM sucrose and 2.5% (w/v) glycine, and grown for 3 hours. To induce gene expression of the pJP005 vector for recombineering experiments, the cells were grown for an additional 30 min after adding 1 ng/mL freshly diluted nisin, unless stated otherwise. For the optimized condition (FIG. 20B), 10 ng/mL nisin was used. Cells were pelleted at 4° C. by centrifugation at 5,000×g for 5 minutes and washed twice with 2 mL of ice-cold electroporation buffer (500 mM sucrose containing 10% (w/v) glycerol) by centrifugation at 13,200×g for 2.5 minutes. Cells were resuspended in 80 μL ice-cold electroporation buffer containing DNA and transferred to a pre-chilled 0.1 cm electroporation cuvette.
as §3

As to “EcSSB: single-stranded binding protein from E. coli [reference compound]”, the “Effect of SSB on oligonucleotide annealing” value in data set [1] was “completely inhibited oligonucleotide annealing”.

B1: PF071: SSAP candidate (protein)
chain: MALTPGLVTLNHAKIMSNESTDKLDLPQAPVPKKTLYEIVMSEDVKTHITQFVEGMMTPERCISIFWNCCQKTPLLQQCAPITLISSLKNLLLMRCEPDGIHGYLVPFWVNDKRTGNSILTCAPVPSARGLMRMARSNGVTNLNIGIVREGEPFSWRLDDGKFTMGHIPGWGDNEDPIRGFYCTWTDKDSYLHGERMSLKAVEEIKGRSKSKNKKGEIVGPWVTDFGQMGLKTVIKRASKQWDLPLVIQAAMQAADDQEFEGNMRNVTPEKTDGPAEGETPWNNAPAPEAFQNDQPEALPEPKPEGQDDLIPGLKMPAPKETATVNMEDY
modifications: Akkermansia sp KLE1798
notes: SSAP candidate
B1: the “Editing efficiency (enrichment) relative to other SSAP candidates” value in data set [2] is listed as “increase in editing efficiency”.

B2: L1SSB: single-stranded binding protein from L. lactis (protein)
chain: MINNVVLVGRITRDPELRYTPQNQAVATFSLAVNRQFKNANGEREADFINCVIWRQQAENLANWAKKGALIGVTGRIQTRNYENQQGQRVYVTEVVADSFQMLESRSARDGMGGGASAGSYSAPSQSTNNTPRPQTNNNSATPNFGRDADPFGSSPMEISDDDLPF
B2: in data set [1], the “Effect of SSB on oligonucleotide annealing” value is recorded as “completely inhibited oligonucleotide annealing”.

B3: PF076: SSAP candidate (protein)
chain: MTGPELAAAAKQTAQQAGSATVKKFFEANRGTLEALLPRHFDSERMLKLALGALRTTPKLANASLSSLLGSVVTCAQLGLEPNTPLGHAYLLPFDKREKQNGQWVTVETQVQVIIGYKGMLDLARRSGQIVSIAAHEVCQNDEFVFAYGLNEELVHRPAMKDRGPVIGFYAVAKLTGGGYSFEFMSVDEVNHIRDKAAEKNRAKRDAAGNPIITGPWADNYVEMGRKTVLRRLFKYLPISIESLAFASAVDGQAIREPAPLEQVAFESSEPAEEPTSYDQQDEDLRALEQSQPARVPPVQVEQPAEAWQPSAEEAAELERQQAAEAAADQQRASAPRGRGQRSMSLE
modifications: Methyloversatilis universalis (strain ATCC BAA-1314 / JCM 13912 /FAM5)
notes: SSAP candidate
Take B3: in data set [2], the “Editing efficiency (enrichment) relative to other SSAP candidates” value was “increase in editing efficiency”.

B4: SR041: SSAP candidate (protein)
chain: MAKIKLTNVRIAFINNLRTPAEFEAGDGKFRYSATFLVEKGSANDKAIEAAIKSVAVEGWAKKADAMLESFRSNSNKFCYQNGDLKDFDGFEGNMYIAAHRKRDDGRPLLLDNVADPETGKPARLVDANGEWLAGKEGRIYAGCYVNATIDIYAQTKTNPGIRCGLMGVQYHGPGDSFSGASRANEDDFEATAPETEDELD
modifications: Burkholderia phage BcepC6B
notes: SSAP candidate
Consider B4, for which, in the data set with Staphylococcus aureus, the “Editing efficiency (enrichment) relative to other SSAP candidates” value was “increase in editing efficiency”.

B5: MspRecT: RecT variant known to enable high genome editing efficiency in M. smegmatis (protein)
chain: MAENAVTKQDSPKAPETISQVLQVLVPQLARAVPKGMDPDRIARIVQTEIRKSRNAKAAGIAKQSLDDCTQESFAGALLTSAALGLEPGVNGECYLVPYRDTRRGVVECQLIIGYQGIVKLFWQHPRASRIDAQWVGANDEFHYTMGLNPTLKHVKAKGDRGNPVYFYAIVEVTGAEPLWDVFTADEIRELRRGKVGSSGDIKDPQRWMERKTALKQVLKLAPKTTRLDAAIRADDRPGTDLSQSQALALPSTVKPTADYIDGEIAEPHEVDTPPKSSRAQRAQRATAPAPDVQMANPDQLKRLGEIQKAEKYNDADWFKFLADSAGVKATRAADLTFDEAKAVIDMFDGPNA
Regarding B5, in the data set on E. coli, the “Improvement of oligo incorporation” value is 290 fold. Besides, the “Toxicity in L. rhamnosus” value in the data set with L. rhamnosus is “toxic”.

B6: SR081: SSAP candidate (protein)
chain: MSKEFYARLAAIQENLNAPKNQYNSFGKYKYRSCEDILEGVKPLLNGLFLSISDEVVLIGDRYYVKATATITDGENSHTATALAREEESKKGMDSAQVTGATSSYARKYCLNGLFGIDDAKDADTDEHKHQQNAAAKQSNPSPTPEQVLKAFTDAAMQKNTVEELKQAFAKAWKMLEGTPEQHKAQDVYNIRRDELEGAAA
modifications: Bacteriophage HK022
notes: SSAP candidate
For the molecule B6, the “Editing efficiency (enrichment) relative to other SSAP candidates” value in the data set with Staphylococcus aureus is given as “increase in editing efficiency”.

B7: SR063: SSAP candidate (protein)
chain: MHLIHQSGEVKMQLSPETNEILPALFNARNKFAKAKKDAKNNHLKNSYATLDAMMAAVSPALTDNDIMILQSMLDTSTETTFHLETMLIHKSGQWAKFFMMMPIAKRDPQGVGSAMTYARRYSLAAALGISQSDDDAQLAVKSVKDWKKELDACEDIESLKDVWANAYRQTDTASKSIIQDHYNALKAKFEIGKARGIRPAQPEQKKQVEATSAKPVQSQSITNFE
modifications: Bacteriophage T1
notes: SSAP candidate
For B7, the “Editing efficiency (enrichment) relative to other SSAP candidates” value in the data set on Staphylococcus aureus is given as “increase in editing efficiency”.

B8: LrpRecT: RecT variant known to enable high genome editing efficiency in L. lactis (protein)
chain: MANQVAQQQKPTKLTDLVLDRVKQMQDTQDLSLPKNYNASNALNAAFLELQKVQDRNHRPALEVCSHDSIVKSLLDMTLQGLSPAKDQCYFIVYGNELQMQRSYFGTVAAVKRLDGVKKVRAEVVHEKDDFEIGANEDMELVVKRFVPKFENQDNQIIGAFAMIKTDEGTDFTVMTKKEIDQSWAQTRQKNNKVQQNFSQEMAKRTVLNRAAKMFINTSDDSDLLTGAINDTTSNEYDDERRDVTPVEDEKQSTDKLLEGFQKSQEAKAKWVSNDGNSNEGKETSEEVADGQTELFSEGTIKPADEADS
With B8, the “Improvement of oligo incorporation” value was 5.6 fold in the data set on E. coli and 7,700 fold with L. lactis. The “Oligonucleotide incorporation” value in the data set on L. rhamnosus (L. rhamnosus) is “three orders of magnitude above the background level”.
